The values below come from patent publication US6605426B1, “Compounds, methods of screening, and in vitro and in vivo uses involving anti-apoptotic genes and anti-apoptotic gene products” (priority 1998, dated 2003).

Test [1] has as its system HeLa cells. Put plainly: Apoptosis resistance of HeLa clones stably expressing pUL37Smyc. The format is cell-based, human. An excerpt:
In a preferred embodiment, HeLa clones continuously (as opposed to transiently) express the version of pUL37s tagged with the C-terminal myc-peptide (amino acids 408-421 within the carboxy terminal domain of human c-Myc) generated by stable transfection with either an expression plasmid containing UL37S alone, or in a mixture with an expression plasmid coding for puromycin-N-acetyl-transferase such as pPUR (Clontech, Palo Alto, Calif.). Following the transfection, drug-resistant clones are selected in medium containing G418 (0.7 mg/mL) or in medium containing puromycin (1 μg/ml), and then the clones are screened for the expression of pUL36-myc-tagged and pUL37S-myc-tagged polypeptides, respectively, by Western analysis with 9E10 anti-Myc antibody (Santa Cruz Biotechnology, Inc., Santa Cruz, Calif.). In using this approach, the present inventors isolated four clones that expressed pUL37S-myc (designated as HeLa/UL37S). These clones were then used to conduct further studies reported in Example 9. Also, four G418-resistant clones of HeLa cells stably transfected with pcDNA3/myc (empty vector, control) were isolated by similar procedures, two with G418 (HeLa/G418) and two with puromycin (HeLa/puro), and used as a negative control in the Western blot analysis and experiments studying the anti-apoptotic activity of the clones.
Three transfected G418-resistant HeLa clones were isolated that stably express pUL37S myc (designated HeLa/UL37×1myc #3, #8, and #N1), as detected by Western blot analysis with the 9E10 anti-myc antibody (Evan et al., 1985, which is incorporated herein by reference) (FIG. 8A). In parallel, three HeLa clones were isolated following stable transfections with the pcDNA3 vector alone (designated HeLa/pcDNA3-A, -B, and —C). […] While virtually all of the HeLa/pcDNA3-A control cells died following an overnight exposure to anti-Fas antibody+CHX or TNF-α+CHX, only a small fraction of the pUL37Smyc-expressing cells underwent apoptosis after an overnight exposure to these agents FIG. 8B). Moreover, most of the pUL37Smyc-expressing cells continued to survive for more than 3 days of culturing in the presence of either anti-Fas antibody+CHX or TNF-α+CHX.
The present inventors tested whether pUL37S can inhibit apoptosis triggered by other stimuli. […] Thus, pUL37S is a broadly acting inhibitor of apoptosis that can inhibit or diminish cell death induced by a variety of cytotoxic agents.

Another test concerns HeLa/UL37x1#3 cells. Put plainly: Dominant-negative assay: pUL37S deletion mutants in HeLa/UL37x1#3 cells, β-galactosidase ELISA. It counts as cell-based, human. To be noted: HeLa/UL37S #3 cells transfected with the empty vector; anti-Fas plus cyclohexamide 24 h. On the procedure: 24 h after co-transfection, the cells were either exposed for an additional 24 h to anti-Fas antibody, in the presence of cyclohexamide (FIGS. 11A and 11B, closed bars) or left untreated (FIGS. 11A and 11B, open bars). The surviving cells were than quantified by determining the β-galactosidase levels with a β-galactosidase ELISA (Boehringer Mannheim). […] The control HeLa/pcDNA3-A cells were sensitive to Fas-mediated apoptosis, and this sensitivity was not affected by the expression of the deletion mutants.
Apoptosis was induced in the cell line HeLa/UL37x1#3 (HeLa cells transfected with UL37x1, clone No. 3), that constitutively expresses pUL37Smyc and is resistant to apoptosis, through the addition of anti-Fas antibodies and cyclohexamide to the culture medium. To identify dominant-negative mutants, HeLa/UL37x1#3 cells were co-transfected with the lacZ (encoding β-galactosidase) indicator plasmid vector, together with either an expression vector for a pUL37S deletion mutant or the empty plasmid vector, pcDNA3. […]
One day after the transfection, cells were treated with anti-Fas antibody plus cyclohexamide for 24 h. Cell survival was then assessed by measuring spectrophotometrically the level of β-galactosidase expression, as described in Example 1. […]

Test [2] deals with HeLa cells. Put plainly: Transient transfection apoptosis assay in HeLa cells (anti-Fas antibody+CHX or TNF-α+CHX). It counts as cell-based, human. To be noted: transiently transfected HeLa cells; anti-Fas antibody+CHX 24 h; surviving cells scored. On the procedure:
Tumor necrosis factor receptor 1 (TNF-R1)-mediated apoptosis was induced by exposure of HeLa and MRC-5 cells to tumor necrosis factor-α (TNF-α) (Sigma, 10-60 ng/mL)+CHX (10-30 μg/mL). Fas-mediated apoptosis was induced by exposure of cells to an anti-Fas antibody (Coulter, 7C11 antibody at 0.2-4 μg/mL)+CHX (10-30 μg/mL). The degree of cell death was determined by the visual scoring of surviving cells, in representative fields, under a phase microscope. A similar degree of cell death occurred in fibroblasts when examined 5 to 28 h after the start of exposure, or a similar degree of cell death occurred in HeLa cells when examined 9-28 h after the start of exposure. Further, a similar degree of cell death for a given reagent was produced when any concentration within the range indicated above was used.
The degree of cell death in cells transfected with an indicator plasmid expressing E. coli β-galactosidase was determined by either a β-galactosidase ELISA (Boehringer Mannheim), in accordance with the manufacturer's recommendations, or by visually scoring, under a microscope, positive blue cells, expressing β-galactosidase, after staining them with X-gal.
HeLa cells were transiently co-transfected with an expression plasmid vector, pME18S, carrying a polynucleotide sequence encoding IE1 or IE2 (FIG. 5, “IE1” and “IE2,” respectively), and a vector carrying the β-galactosidase gene (pCMVβ, Clontech). As a positive control, HeLa cells were transiently co-transfected with pCMVβ and a vector carrying a polynucleotide sequence encoding an anti-apoptotic polypeptide, such as the adenovirus E1B 19K or baculovirus p35.
Expression of IE1 (approx. 72 kDa) and IE2 (approx. 86 kDa) in the transfected HeLa cells was confirmed by Western blot analysis, by immunofluorescence visually examined under a fluorescence microscope, and by transactivation activity which led to an elevation of the vector-CMV-promoter-driven β-galactosidase expression which was increased 2- to 5-fold, as measured by a β-galactosidase ELISA (data not shown). Apoptosis was induced by incubating the transfected cells for 24 h with either TNF-α+CHX, or anti-Fas antibody+CHX. The surviving cells were stained with X-gal, a chromogenic substrate of β-galactosidase, and then the blue-stained cells were scored (FIG. 5).
To identify HCMV genes that can suppress apoptosis induced by Fas-ligation, the present inventors established a transient transfection assay in HeLa cells. The HeLa cells can be transfected at much higher efficiency than MRC-5 cells and are similar in their sensitivity towards anti-Fas antibody and TNF-α treatment. Enhanced survival of HeLa cells following anti-Fas antibody+CHX treatment was detected by elevated β-galactosidase (β-gal) levels produced by a transfected β-gal marker plasmid.
The deletion mutants were transiently expressed in HeLa cells, cultured in DMEM supplemented with 10% fetal bovine serum, and assayed for their ability to block Fas- or TNF-R1-mediated apoptosis. Transfections and apoptosis assays were performed as previously described (Goldmacher et al., 1999). Briefly, cells were transiently transfected with the expression vectors (purified with a Qiagen plasmid purification kit) using SuperFect transfection reagent (Qiagen) in accordance with the manufacturer's protocol. After 24 hours, cells were exposed to anti-Fas 7C11 antibody (Coulter, 0.5 μg/ml)+cyclohexamide (Sigma, 10 μg/ml) for 24 hours.
A genomic DNA library was cloned into pZeoSV2(+) plasmid (Invitrogen). Ten cosmids, pCM1007, pCM1015, pCM1017, pCM1029, pCM1035, pCM1039, pCM1040, pCM1052, pCM1058, and pCM1072, covering the AD169 genome (Fleckenstein et al., 1982, which is incorporated herein by reference), and pON2601 Toledo cosmid (Cha et al., 1996, which is incorporated herein by reference) containing unique HCMV sequences, were mixed in equal amounts and partially digested with Sau3AI (New England Biolabs, Beverly, Mass.). […]

For test [3], the target named is T1, full-length pro-caspase 8 (Homo sapiens, UniProt Q14790).
T1 construct: HA-tagged full-length pro-caspase 8 (lanes 5 and 6); expressed in transfected cells; host or cells: 293T cells co-transfected with pUL36AD169-earlymyc or pUL36AD169-ATCCmyc
Put plainly: Co-precipitation in co-transfected 293T cells (anti-HA IP, anti-myc blot). It counts as binding. The note with it: HA-tagged pro-caspase 8. From the text: (§1) Pro-caspase 8 was detected on the pUL36-containing beads (lane 4), but not on the control beads (lane 2), while the lysates from all these cells contained similar amounts of pro-caspase 8 (compare lanes 1 and 3). […] To test this hypothesis, 293T cells were co-transfected with pUL36AD169-earlymyc and with a truncated pro-caspase 8, containing only its HA-tagged pro-domain region. pUL36AD169-earlymyc is expressed by a fusion gene comprising a UL36 ORF isolated from a pre-1982 passage of CMVAD169 and the carboxy-linked myc epitope tag. The cells were lysed as above, and anti-HA antibody was used to immunoprecipitate the caspase 8 pro-domain. Anti-myc antibodies were then used to probe a Western blot for the inclusion of pUL36 with the immunoprecipitated material. Control cells were transfected with pUL36AD169-earlymyc with either the empty vector (negative control), or with HA-tagged pro-caspase 8 (positive control). Additional cells were co-transfected with the non-functional mutant pUL36AD169-ATCCmyc with either the HA-pro-domain, the empty vector or HA-pro-caspase 8.

In the next test the target is T2, pro-domain of caspase 8 (Homo sapiens, UniProt Q14790).
T2 construct: a truncated pro-caspase 8, containing only its HA-tagged pro-domain region; expressed in transfected cells; host or cells: 293T cells co-transfected with pUL36AD169-earlymyc or pUL36AD169-ATCCmyc
Described as above. It counts as binding. To be noted: HA-tagged pro-domain.
Source text: as §1

T2 sequence (Q14790 1-216 limits assumed): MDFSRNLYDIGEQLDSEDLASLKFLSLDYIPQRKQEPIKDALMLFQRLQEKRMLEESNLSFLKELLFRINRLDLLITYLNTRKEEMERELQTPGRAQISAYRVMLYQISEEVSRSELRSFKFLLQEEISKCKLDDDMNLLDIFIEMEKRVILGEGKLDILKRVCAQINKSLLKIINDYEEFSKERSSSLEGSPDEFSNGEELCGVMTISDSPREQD
T1 sequence (Q14790 whole entry): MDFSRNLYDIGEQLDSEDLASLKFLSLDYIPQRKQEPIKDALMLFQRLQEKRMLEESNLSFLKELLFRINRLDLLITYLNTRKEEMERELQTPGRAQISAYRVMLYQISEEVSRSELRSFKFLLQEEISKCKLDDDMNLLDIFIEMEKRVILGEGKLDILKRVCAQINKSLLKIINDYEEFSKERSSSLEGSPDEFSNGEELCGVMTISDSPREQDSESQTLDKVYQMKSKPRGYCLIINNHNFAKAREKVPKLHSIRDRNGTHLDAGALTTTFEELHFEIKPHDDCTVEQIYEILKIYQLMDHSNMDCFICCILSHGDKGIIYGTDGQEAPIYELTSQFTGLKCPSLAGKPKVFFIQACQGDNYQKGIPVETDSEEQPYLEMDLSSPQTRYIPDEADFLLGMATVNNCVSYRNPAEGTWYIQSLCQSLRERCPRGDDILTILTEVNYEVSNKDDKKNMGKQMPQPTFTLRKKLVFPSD

B1: pUL37Smyc: pUL37S fused at its C-terminus with a c-myc-epitope tag; constitutively expressed in HeLa/UL37x1#3 cells (protein)
chain: MSPVYVNLLGSVGLLAFWYFSYRWIQRKRLEDPLPPWLRKKKACALTRRSRHRLRRQHGVIDGENSETERSVDLVAALLAEAGEESVTEDTEREDTEEEREDEEEENEARTPEVNPIDAEGLSGLAREACEALKKALRRHRFLWQRRQRARMLQHNGPQQSHQ
B1: the “resistance to apoptosis induced by doxorubicin” value in the test on HeLa cells [1] (doxorubicin 1, 3, and 6 μM, 24 h, trypan blue exclusion) was “substantially more resistant”. Further, the “duration of survival in culture with apoptotic stimulus” value in the test on HeLa cells [1] (in the presence of either anti-Fas antibody+CHX or TNF-α+CHX) is reported as “more than 3 days”. In the test on HeLa cells [1] (stable HeLa clones, TNF-α+CHX), the “resistance to TNF-R1-mediated apoptosis” value is on record as “resistant”. The “resistance to Fas-mediated apoptosis” value in the test with HeLa cells [1] (stable HeLa clones, anti-Fas antibody+CHX) is listed as “resistant”. Besides, the “β-gal signal compared to untreated cells” value in the test with HeLa/UL37x1#3 cells was “about 40%”.

B2: pUL36AD169-early: pUL36 of an early (pre-1982) passage of HCMV strain AD169; Cys131 (protein)
chain: MDDLRDTLMAYGCIAIRAGDFNGLNDFLEQECGTRLHVAWPERCFIQLRSRSALGPFVGKMGTVCSQGAYVCCQEYLHPFGFVEGPGFMRYQLIVLIGQRGGIYCYDDLRDCVYELAPTMKDFLRNGFRHCDHFHTMRDYQRPMVQYDDYWNAVMLYRGDVESLSAEVTKRGYASYTIDDPFDECPDTHFAFWTHNTEVMKFKETSFSVVRAGGSIQTMELMIRTVPRITCYHQLLGALGHEVPERKEFLVRQYVLVDTFGVVYGYDPAMDAVYRLAEDVVMFTCVMGKKGHRNHRFSGRREAIVRLEKTPTCQHPKKTPDPMIMFDEDDDDELSLPRNVMTHEEAESRLYDAITENLMHCVKLVTTDSPLATHLWPQELQALCDSPALSLCTDDVEGVRQKLRARTGSLHHFELSYRFHDEDPETYMGFLWDIPSCDRCVRRRRFKVCDVGRRHIIPGAANGMPPLTPPHVYMNN
B2: in the test on HeLa cells [2], the “anti-apoptotic activity: protection against Fas-mediated apoptosis” value was “effective death suppressors”. Besides, the “co-precipitation with full-length pro-caspase 8” value in test [3] is on record as “co-precipitated”. The “co-precipitation with the pro-domain of caspase 8” value in the test with pro-domain of caspase 8 is recorded as “co-precipitated”.
